Laboratory results published in the Immune Epitope Database (IEDB).

Key:
HLA-A*03:01 = assay: IEDB peptide-MHC binding, purified MHC/direct/fluorescence; filed as Kd, often an IC50 or EC50 that approximates it; ≥ and ≤ were set here for values at or beyond the usual limits of such assays
HLA-A*26:01 [1] = assay: as above
HLA-A*11:01 = assay: as above
HLA-A*24:03 = assay: as above
HLA-B*15:01 = assay: as above
HLA-A*69:01 [2] = assay: as above
HLA-B*08:01 = assay: as above
HLA-A*30:01 = assay: as above
HLA-B*58:01 = assay: as above
HLA-A*02:01 [3] = assay: as above
HLA-B*07:02 = assay: as above
HLA-B*40:01 = assay: as above
HLA-A*01:01 = assay: as above
HLA-A*02:03 = assay: IEDB peptide-MHC binding, purified MHC/competitive/fluorescence; filed as Kd, often an IC50 or EC50 that approximates it; ≥ and ≤ were set here for values at or beyond the usual limits of such assays
HLA-A*02:19 = assay: as above
HLA-A*02:12 = assay: as above
HLA-A*69:01 [4] = assay: as above
HLA-A*02:11 = assay: as above
HLA-A*02:06 = assay: as above
HLA-A*02:01 [5] = assay: as above
HLA-B*27:05 = assay: IEDB peptide-MHC binding, purified MHC/direct/fluorescence; filed as Kd, often an IC50 or EC50 that approximates it; ≥ and ≤ were set here for values at or beyond the usual limits of such assays
HLA-A*31:01 = assay: as above
HLA-B*48:01 = assay: as above; details: source organism: Escherichia coli O157:H7
HLA-A*68:02 [6] = assay: as above; details: source organism: Escherichia coli O157:H7
HLA-B*18:01 [7] = assay: as above; details: source organism: Escherichia coli O157:H7
HLA-B*46:01 [8] = assay: as above; details: source organism: Escherichia coli O157:H7
HLA-B*15:17 = assay: as above; details: source organism: Escherichia coli O157:H7
HLA-B*57:01 = assay: as above; details: source organism: Escherichia coli O157:H7
HLA-B*39:01 = assay: IEDB peptide-MHC binding, purified MHC/competitive/fluorescence; filed as Kd, often an IC50 or EC50 that approximates it; ≥ and ≤ were set here for values at or beyond the usual limits of such assays; details: source organism: Vibrio cholerae O395
HLA-A*26:01 [9] = assay: as above; details: source organism: Vibrio cholerae O395
HLA-A*29:02 = assay: as above; details: source organism: Vibrio cholerae O395
HLA-A*68:02 [10] = assay: as above; details: source organism: Vibrio cholerae O395
HLA-A*02:16 = assay: as above; details: source organism: Vibrio cholerae O395
HLA-B*18:01 [11] = assay: as above; details: source organism: Vibrio cholerae O395
HLA-B*46:01 [12] = assay: as above; details: source organism: Vibrio cholerae O395
HLA-B*44:02 = assay: IEDB peptide-MHC binding, purified MHC/direct/fluorescence; filed as Kd, often an IC50 or EC50 that approximates it; ≥ and ≤ were set here for values at or beyond the usual limits of such assays; details: source organism: Rickettsia prowazekii
[13] = source organism: Vibrio vulnificus
[14] = source organism: Vibrio vulnificus YJ016
[15] = source organism: Human immunodeficiency virus 1
[16] = source organism: Pasteurella multocida
[17] = source organism: Escherichia coli O157:H7
[18] = source organism: Vibrio cholerae O395
[19] = source organism: Escherichia coli 536
[20] = source organism: Escherichia coli O6
[21] = source organism: Yersinia pestis Nepal516
[22] = source organism: Rickettsia prowazekii

Question: Which results are given for DAYGFHNYK?
Answer: Kd (HLA-A*03:01; [13]): 0.216 µM; Kd (HLA-A*26:01 [1]; [14]): ≥ 20 µM; Kd (HLA-A*11:01; [13]): 0.13 µM; Kd (HLA-A*24:03; [14]): ≥ 20 µM; Kd (HLA-B*15:01; [14]): ≥ 20 µM; Kd (HLA-A*69:01 [2]; [14]): ≥ 20 µM; Kd (HLA-B*08:01; [14]): ≥ 20 µM; Kd (HLA-A*30:01; [13]): 1.11 µM; Kd (HLA-B*58:01; [14]): ≥ 20 µM; Kd (HLA-A*02:01 [3]; [14]): ≥ 20 µM; Kd (HLA-B*07:02; [14]): ≥ 20 µM; Kd (HLA-B*40:01; [14]): ≥ 20 µM; Kd (HLA-A*01:01; [14]): ≥ 20 µM

Question: NLGQHIYET was tested. Which Kd (HLA-A*02:03; [15]) did it give?
Answer: The Kd was 0.116 µM.

Question: And the Kd (HLA-A*02:19; [15])?
Answer: Its Kd is 0.146 µM.

Question: And the Kd (HLA-A*02:12; [15])?
Answer: The Kd was 0.323 µM.

Question: What about the Kd (HLA-A*69:01 [4]; [15]) of the same sequence?
Answer: Its Kd is ≥ 20 µM.

Question: And the Kd (HLA-A*02:11; [15])?
Answer: The Kd was 0.0335 µM.

Question: And the Kd (HLA-A*02:06; [15])?
Answer: Its Kd is 0.11 µM.

Question: What about the Kd (HLA-A*02:01 [5]; [15]) of the same sequence?
Answer: The Kd was 9 µM.

Question: How did the Kd (HLA-A*03:01; [16]) turn out when NNKSRLVAF was run?
Answer: The Kd was ≥ 20 µM.

Question: And the Kd (HLA-A*26:01 [1]; [16])?
Answer: The Kd was ≥ 20 µM.

Question: And the Kd (HLA-A*11:01; [16])?
Answer: Its Kd is ≥ 20 µM.

Question: What about the Kd (HLA-A*24:03; [16]) of the same sequence?
Answer: Its Kd is ≥ 20 µM.

Question: What about the Kd (HLA-B*15:01; [16]) of the same sequence?
Answer: Its Kd is ≥ 20 µM.

Question: And the Kd (HLA-A*69:01 [2]; [16])?
Answer: Its Kd is ≥ 20 µM.

Question: And the Kd (HLA-B*08:01; [16])?
Answer: The Kd was 0.161 µM.

Question: And the Kd (HLA-B*27:05; [16])?
Answer: Its Kd is ≥ 20 µM.

Question: What about the Kd (HLA-A*30:01; [16]) of the same sequence?
Answer: Its Kd is 15.7 µM.

Question: And the Kd (HLA-B*58:01; [16])?
Answer: The Kd was ≥ 20 µM.

Question: What about the Kd (HLA-A*02:01 [3]; [16]) of the same sequence?
Answer: Its Kd is ≥ 20 µM.

Question: And the Kd (HLA-A*31:01; [16])?
Answer: The Kd was ≥ 20 µM.

Question: And the Kd (HLA-B*40:01; [16])?
Answer: The Kd was ≥ 20 µM.

Question: And the Kd (HLA-A*01:01; [16])?
Answer: Its Kd is ≥ 20 µM.

Question: What does the source list for RGRGVAIHR?
Answer: Kd (HLA-A*03:01; [17]): 0.487 µM; Kd (HLA-B*48:01): ≥ 20 µM; Kd (HLA-A*11:01; [17]): ≥ 20 µM; Kd (HLA-B*15:01; [17]): ≥ 20 µM; Kd (HLA-A*68:02 [6]): ≥ 20 µM; Kd (HLA-B*27:05; [17]): ≥ 20 µM; Kd (HLA-B*18:01 [7]): ≥ 20 µM; Kd (HLA-B*46:01 [8]): ≥ 20 µM; Kd (HLA-B*58:01; [17]): ≥ 20 µM; Kd (HLA-A*02:01 [3]; [17]): ≥ 20 µM; Kd (HLA-B*07:02; [17]): ≥ 20 µM; Kd (HLA-A*31:01; [17]): 0.0066 µM; Kd (HLA-B*15:17): ≥ 20 µM; Kd (HLA-B*40:01; [17]): ≥ 20 µM; Kd (HLA-B*57:01): ≥ 20 µM; Kd (HLA-A*01:01; [17]): ≥ 20 µM; Kd (HLA-A*02:06; source organism: Shigella dysenteriae 1012): 0.569 µM

Question: What does the source list for RVHFHRFMY?
Answer: Kd (HLA-A*02:03; [18]): ≥ 20 µM; Kd (HLA-B*39:01): ≥ 20 µM; Kd (HLA-A*02:19; [18]): ≥ 20 µM; Kd (HLA-A*26:01 [9]): ≥ 20 µM; Kd (HLA-A*02:12; [18]): ≥ 20 µM; Kd (HLA-A*29:02): 0.0042 µM; Kd (HLA-A*69:01 [4]; [18]): ≥ 20 µM; Kd (HLA-A*02:11; [18]): ≥ 20 µM; Kd (HLA-A*68:02 [10]): ≥ 20 µM; Kd (HLA-A*02:16): ≥ 20 µM; Kd (HLA-B*18:01 [11]): ≥ 20 µM; Kd (HLA-B*46:01 [12]): ≥ 20 µM; Kd (HLA-A*02:01 [5]; [18]): ≥ 20 µM

Question: For RYICPVQQI, which Kd (HLA-A*03:01; [19]) is on record?
Answer: Its Kd is ≥ 20 µM.

Question: And the Kd (HLA-A*26:01 [1]; [19])?
Answer: Its Kd is ≥ 20 µM.

Question: And the Kd (HLA-A*24:03; [20])?
Answer: The Kd was 0.00253 µM.

Question: What about the Kd (HLA-B*15:01; [19]) of the same sequence?
Answer: Its Kd is ≥ 20 µM.

Question: And the Kd (HLA-A*69:01 [2]; [19])?
Answer: Its Kd is ≥ 20 µM.

Question: What about the Kd (HLA-B*08:01; [19]) of the same sequence?
Answer: Its Kd is ≥ 20 µM.

Question: And the Kd (HLA-B*27:05; [19])?
Answer: Its Kd is ≥ 20 µM.

Question: And the Kd (HLA-A*30:01; [20])?
Answer: The Kd was 4.19 µM.

Question: And the Kd (HLA-B*58:01; [20])?
Answer: The Kd was 9.09 µM.

Question: What about the Kd (HLA-A*02:01 [3]; [19]) of the same sequence?
Answer: The Kd was ≥ 20 µM.

Question: What about the Kd (HLA-B*07:02; [19]) of the same sequence?
Answer: The Kd was ≥ 20 µM.

Question: And the Kd (HLA-B*40:01; [19])?
Answer: Its Kd is ≥ 20 µM.

Question: And the Kd (HLA-A*01:01; [19])?
Answer: Its Kd is ≥ 20 µM.

Question: What does the source list for SLTPSPLDL?
Answer: Kd (HLA-A*02:06; [21]): 1.39 µM; Kd (HLA-A*02:01 [5]; [21]): 0.21 µM

Question: With VVNYDNSTK as the sequence, how does the Kd (HLA-A*03:01; [22]) read?
Answer: Its Kd is 0.445 µM.

Question: And the Kd (HLA-A*26:01 [1]; [22])?
Answer: The Kd was ≥ 20 µM.

Question: And the Kd (HLA-A*11:01; [22])?
Answer: Its Kd is 0.0451 µM.

Question: What about the Kd (HLA-A*24:03; [22]) of the same sequence?
Answer: The Kd was ≥ 20 µM.

Question: And the Kd (HLA-B*15:01; [22])?
Answer: The Kd was ≥ 20 µM.

Question: And the Kd (HLA-A*69:01 [2]; [22])?
Answer: The Kd was ≥ 20 µM.

Question: And the Kd (HLA-B*08:01; [22])?
Answer: The Kd was ≥ 20 µM.

Question: What about the Kd (HLA-B*27:05; [22]) of the same sequence?
Answer: The Kd was ≥ 20 µM.

Question: What about the Kd (HLA-A*30:01; [22]) of the same sequence?
Answer: The Kd was 1.74 µM.

Question: And the Kd (HLA-B*58:01; [22])?
Answer: Its Kd is ≥ 20 µM.

Question: And the Kd (HLA-A*02:01 [3]; [22])?
Answer: The Kd was ≥ 20 µM.

Question: And the Kd (HLA-B*07:02; [22])?
Answer: Its Kd is ≥ 20 µM.

Question: What about the Kd (HLA-A*31:01; [22]) of the same sequence?
Answer: Its Kd is 5.51 µM.

Question: And the Kd (HLA-B*40:01; [22])?
Answer: The Kd was ≥ 20 µM.

Question: And the Kd (HLA-A*01:01; [22])?
Answer: Its Kd is ≥ 20 µM.

Question: And the Kd (HLA-B*44:02)?
Answer: The Kd was ≥ 20 µM.
